The results in this text go back to patent US7514408.

Square brackets hold non-standard residues; d marks the D form. Ends that are not written are not given here. Sta = CC(C)C[C@H](N)[C@@H](O)CC(=O)O; Phg = N[C@H](C(=O)O)c1ccccc1; Tle = CC(C)(C)[C@H](N)C(=O)O; Abu = CC[C@H](N)C(=O)O

The target of series [1] is β-secretase (enzyme preparation not stated for the inhibitor assays) (human) (UniProt P56817). The series can be described thus: cell-based or functional assay.
Series [2] deals with Swedish mutant P13-P5′ peptide with P1′ aspartic acid replaced with a leucine (D→L), P05067.
For series [3], the target named is Swedish mutant P13-P5′ peptide with P1′ aspartic acid replaced with a valine (D→V), P05067.
Chain of Swedish mutant P13-P5′ peptide with P1′ aspartic acid replaced with a valine (D→V), P05067 (P05067 whole entry, looked up, change not shown, tested part not stated): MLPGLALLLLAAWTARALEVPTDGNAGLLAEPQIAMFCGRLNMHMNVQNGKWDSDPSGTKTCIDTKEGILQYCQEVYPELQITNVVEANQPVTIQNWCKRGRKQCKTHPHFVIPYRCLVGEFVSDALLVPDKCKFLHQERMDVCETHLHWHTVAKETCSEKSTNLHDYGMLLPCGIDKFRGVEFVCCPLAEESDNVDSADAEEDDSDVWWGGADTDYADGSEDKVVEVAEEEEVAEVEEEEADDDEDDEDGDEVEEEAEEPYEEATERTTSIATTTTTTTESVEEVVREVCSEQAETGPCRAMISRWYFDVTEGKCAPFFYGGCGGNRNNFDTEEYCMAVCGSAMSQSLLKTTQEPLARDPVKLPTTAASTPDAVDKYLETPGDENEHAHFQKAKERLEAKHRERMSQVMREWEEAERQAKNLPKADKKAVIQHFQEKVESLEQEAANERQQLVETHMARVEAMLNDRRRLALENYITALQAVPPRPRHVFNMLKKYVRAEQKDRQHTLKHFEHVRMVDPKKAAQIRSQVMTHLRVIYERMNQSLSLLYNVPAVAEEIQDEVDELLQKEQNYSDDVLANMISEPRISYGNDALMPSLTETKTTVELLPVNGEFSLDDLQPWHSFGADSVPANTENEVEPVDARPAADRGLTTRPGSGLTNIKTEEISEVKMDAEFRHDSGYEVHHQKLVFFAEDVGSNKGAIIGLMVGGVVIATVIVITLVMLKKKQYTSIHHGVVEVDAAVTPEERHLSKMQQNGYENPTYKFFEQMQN

Chain of Swedish mutant P13-P5′ peptide with P1′ aspartic acid replaced with a leucine (D→L), P05067 (P05067 whole entry, looked up, change not shown, tested part not stated): as above

B1: heptamer peptide 7K (Ac-Val-Glu-Sta-Val-Ala-Glu-Phe) (peptide)
peptide: Ac-VE[Sta]VAEF
B1 returned an IC50 Group, MBP C125 assay (Group II: =1<10 µM) in series [1] below 10 µM.

B2: heptamer peptide 7C (Ac-Val-Met-Sta-Abu-Ala-Glu-Phe) (peptide)
peptide: Ac-VM[Sta][Abu]AEF
With B2, the IC50 Group, MBP C125 assay (Group II: =1<10 µM) in series [1] was below 10 µM.

B3: hexameric peptide 7N (Ac-Val-Met-Sta-Ala-Glu-Phe, P1′ deleted) (peptide)
peptide: Ac-VM[Sta]AEF
The molecule B3 yielded an IC50 Group, MBP C125 assay (Group II: =1<10 µM) in series [1] below 10 µM.

B4: heptamer peptide 7E (Ac-Val-Met-Sta-Ala-Ala-Glu-Phe) (peptide)
peptide: Ac-VM[Sta]AAEF
In the case of B4, in series [1], the IC50 Group, MBP C125 assay (Group II: =1<10 µM) was below 10 µM.

B5: heptamer peptide 7L (Ac-Val-Val-Sta-Val-Ala-Glu-Phe) (peptide)
peptide: Ac-VV[Sta]VAEF
On to B5, for which, in series [1], the IC50 Group, MBP C125 assay (Group IV: =20<50 µM) is below 50 µM.

B6: heptamer peptide 7D (Ac-Val-Met-Sta-Phg-Ala-Glu-Phe) (peptide)
peptide: Ac-VM[Sta][Phg]AEF
On to B6, for which the IC50 Group, MBP C125 assay (Group II: =1<10 µM) in series [1] is below 10 µM.

B7: β-secretase purified from human brain (naturally occurring β-secretase) (protein)
chain: ETDEEPEEPGRRGSFVEMVDNLRGKSGQGYYVEMTVGSPPQTLNILVDTGSSNFAVGAAPHPFLHRYYQRQLSSTYRDLRKGVYVPYTQGKWEGELGTDLVSIPHGPNVTVRANIAAITESDKFFINGSNWEGILGLAYAEIARPDDSLEPFFDSLVKQTHVPNLFSLQLCGAGFPLNQSEVLASVGGSMIIGGIDHSLYTGSLWYTPIRREWYYEVIIVRVEINGQDLKMDCKEYNYDKSIVDSGTTNLRLPKKVFEAAVKSIKAASSTEKFPDGFWLGEQLVCWQAGTTPWNIFPVISLYLMGEVTNQSFRITILPQQYLRPVEDVATSQDDCYKFAISQSSTGTVMGAVIMEGFYVVFDRARKRIGFAVSACHVHDEFRTAAVEGPFVTLDMEDCGYNIPQTDESTLMTIAYVMAAICALFMLPLCLMVCQWRCLRCLRQQHDDFADDISLLK
For B7, the “substrate concentration dependence of hydrolysis by brain β-secretase” value in series [2] is “The valine and leucine substituted Swedish peptides show saturation at a lower concentration than the parent Swedish peptide”; in series [3] it was “The valine and leucine substituted Swedish peptides show saturation at a lower concentration than the parent Swedish peptide”.

B8: heptamer peptide 7F (Ac-Val-Met-Sta-tLeu-Ala-Glu-Phe) (peptide)
peptide: Ac-VM[Sta][Tle]AEF
In series [1], B8 gave an IC50 Group, MBP C125 assay (Group IV: =20<50 µM) below 50 µM.

B9: hexameric peptide 7R ((NH2)Val-Met-Sta-Val-Glu-Phe, P2′ deleted) (peptide)
peptide: H-VM[Sta]VEF
In series [1], B9 gave an IC50 Group, MBP C125 assay (Group II: =1<10 µM) below 10 µM.

B10: heptamer peptide 7M (Ac-Val-Gly-Sta-Val-Ala-Glu-Phe) (peptide)
peptide: Ac-VG[Sta]VAEF
As for B10, in series [1], the IC50 Group, MBP C125 assay (Group II: =1<10 µM) is below 10 µM.
